Measurements from the nanobody polyreactivity screen of Harvey et al. (2022).

Assay: yeast display, Sf9 membrane polyspecificity reagent, FACS + sequencing; frameworks hold sequencing errors
Outline: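 Sorting gates, low and high (top ~1%), were placed on anti-HA fluorescence to track expression and on streptavidin fluorescence to track reagent binding. A clone's polyreactivity label is taken from the gate it came out of. The reagent was 10% biotinylated, detergent-solubilized Sf9 membrane, applied for 1 hour at 4 °C to galactose-induced yeast display cells.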

| Sequence | polyreactivity (PSR sort gate) |
| --- | --- |
| QVQLVESGGGLVQAGGSLRLSCAASGSTFYLNAMGWYRPAPGKERELVAAISSGGRTYYADSVKGRFTISRDNAKNTVYLQMISLKPEDTGVYYCNAVRYLRGAYNYWGQGTQVTVSS | high polyreactivity |
| QVQLVESGGGLVQAGGSLLLSCAASGSIFDAYAMGWYRQSRGKERELVAAITSGGSTYYADSVKGRFTISRDNAKNNVYLQMNSLKPEDTAVYYCAAQYYDYKTTYDYWGQGTQVTVSS | high polyreactivity |
| QVQLVESGGGLVQAGGSLRLSCAASGSIFYRYAMGWYRQAPGKERELVAAISYNGGRTYYADSVKGRFTISRDNAKNTVYLQMNSLKPEDTAVYYCNAAGRDDAYDYWGQGTQVTVSS | high polyreactivity |
| QLQLVDSGGGLVQAGGSLRLSCADSGRTYGAYTMGWYRKAPGKERELVAAINWSGGDTYYADSVKVRFTISRDNAKNTVYLQMNRLKPEDTAVYYCNAEPRYGTYDYWGQGTQVTVSS | low polyreactivity |
| QVQVVESGGGLVQAGGSLRLSCAASGRIFRANAMGGYRKAPGKERELVADISRSAGSTYYADSVKGRFTISRDNAKNTVYLQLNSLKPADTAVYYCAKRGYYSFDYWGQGTQVTVSS | high polyreactivity |
| QVQLVESGGGLVQAGGSLRLSCAASGSIFSYYAMGWYRQAPGKERELVADITANDGSTYYADSVKGRFTISRDNAKNTVYLQMNSLKPEDTAVYYCAAEYYYPIWGPYDYWGQGTQVTVSS | high polyreactivity |
| QVQLVESGGGLVQAGGSLRLICAASGSIFDYYTRGWYRQAPGKERELVASITQSGGSTYYADSVKGRFTISRDNGKNTVYLQMNSLKPEDTAVYYCAADFSIVKMDYWGQGTQVTVSS | low polyreactivity |
| QVQLVESGGGLVQAGGSLRLSCAAWSIFYLNAMGWYRQAHGKERELVAAISSAGSTYYADSVKGRFTISRDNAKKTVYLHMNSLKPEDTAVYYCAAYWYDSPGVTEIWYDYWGQGTQVTVSS | low polyreactivity |
| QVQLVESGGGLVQAGGSLRLSCAASGSIFGVNAMGWYRQAPGKERELVAAISVSGGRTYYADSVKGRFTISRDNAKNTVYLLMNSLKPEDTAVYYCAATTYIWPYDYWGQGTQVTVSS | low polyreactivity |
| QVQLVESGGGLVQAGGSLRLSCAASGSIFVPNAMGWYRQAPGKEREFVAAITRSGGRTYYADSVKGRFTISRDNAKNTVYLQMNSLKPEDTAVYYCAAPYGTYAYDYWGQGTQVTVSS | high polyreactivity |
| QVQLVESGGGLVQAGGSLRLSCASSGRTFFRNPMGWYRQAPGKERELVAAISKRGGSTYYADSVKGRFTISRDNAKNTVYLQMISLSPEDTAVYYCNADPRTVGLDYWGQGTQVTVSS | high polyreactivity |
| HVQLVESGGGLVQAGGSLRLSCAASGSSLDYYVMGWYRQAPGNERELVAAIRGGGSTYYADSVKGRFTISRDNAKNTVYLQMKSLKPEDTEVYYCAKDSQTARDFDYWGQGTQVTVSS | low polyreactivity |
| QVQLVESGGGLVQAGGSLRLSCAASGSIFSLYAMGWYRQAPGKERELVAAISSSGTSTYYADSVKGRFTISRDNAKNTVYLQMNSLKPEDTAVYYCNAYRRRATYNGDYWGQGTQVTVSS | high polyreactivity |
| QVQLVESGGGLVQAGGSLRLSCAASGRILRYNALGWYRQAPGTERELVASISGNGGSTYYADSVKGRVTISRDNAKNTVYLQMNSLKPEDTALYYCNKYYYSSRGQKEYDYWGQGTQVTVSS | low polyreactivity |
| QVQLVESGGGLVQAGGSLRLSCAASGFIFFRYAMGWYRQAPGKERELVAAISSSGGSTYYADSVKGRFTISRDNAKNTVYLQMNSLKPEDTAVYYCAAPRYRIFVGLGMEYWGQGTQVTVSS | high polyreactivity |
| QVQVEESGGGLVQAGGSLRLSCAASGSIFNRYAMGWYRQAPGKERELVAAISRSGSTYYADSVKGRFTISRDNAKNTVYLQMNSLKAEDTEVYYCNARGTTHHTSYDYWGQGTQVTVSS | low polyreactivity |
| QVQLVESGGGLVQAGGSLRLSCAASGSTFAIYAMGWYRQAPGKERELVAAITRGSTSYADSVKGRFTISRDNAKNTVYLQMYSLKPEDTAVYYCAADSSRYGVIRDFDYWGQGTQVTVSS | high polyreactivity |
| QVQLVESGGGLVQAGGSLRLSCAASGSIFTFYDMGWYRQAPGKERELVAAISSGGSTTYADSVKGRFTISRDNAKNTVYLQMNSLKPEDTAVYYCAADSQPYLYPVEYDYWGQGTQVTVSS | low polyreactivity |
| QVHLVESGGGLDQAGGSLRLSCAASGIIFFKNAMGWYRPAPGKERELVAAISSTDTRTYYADSVKGRFTISRDNAKNTVYLQKNSLKPEDTAVYYCAADYIYYYEQYLWYTYDYWGQGTQVTLSS | high polyreactivity |
| QVQLVESGGGEVQEGGILRLSCAASGSIFSRNSMGWYRQAPGKDRELVAAITWSGGSTYYADSVKGRFTISRDNAKYTVYLLMNSLKPEDTAVYYCNADFAGTPNQYDYWGQGTQVTVSA | high polyreactivity |
| QVQLVESGGGLVQAGGSLRLSCAASGGILYHYAMGWYRQAPGIERELVAAIRWSGGSTYYADSVKGRFTISRDNAKNTVYLQMNSLKPEDTAVYYCAADVYYYHVLDFDYWGQGTQVTVSS | low polyreactivity |
| QVQLVDSGGGLVQAGGSLRLSCASSGSTTVLYAKGWYRQAPGKEREMVAAISRSGGSTYYADSVKGRFTISRDNAKYTVYLQMNSLKPEDTAVYYCAARVPFSPYLRLFDYWGQGTQVTVSS | low polyreactivity |

| Sequence | polyreactivity (PSR sort gate) |
| --- | --- |
| QVQLVESGGGLVQAGGSLRLSCAASGSTLSKYGMGRYRQAPGKERELVAAISYSSGSTYYADSVKGRFTISRDNAKNSVYLQMNSLKPEDTAVYYGAADRFRRLHYWTYDYWGQGTQVTVSS | high polyreactivity |
| QVQLVESGGGLVQAGGSLRLSCAASGITFTINAMGWYRQAPGKERELVAVIDVSGGSTDYADSVKGRFTISRDNAKNTVYLQMNSLKPEDTAVYYCAADEYDVYYYAYREYYWGQGTQVTVSS | low polyreactivity |
| QVQLVESGGGLVQAGGSLRISCDASGRTFYVYDRGWYRQAPGKERELVAVISSSGSTNYADSVKGRFTISRDNAKNTVYLQMNSLKPEDTAVYYCNRRRWYFFSLDYWGQGTQVTVSS | high polyreactivity |
| QVQLVESGGGLVQAGGSLRLSCAASGNIFLFYVMGWYRQAPGKERELVAAITLSGTNTYYADSVKGRFTISRDNAKNTVYLQMNSLKPEDTAVYYCNADWWSDGYDYWGQGTQVTVSS | low polyreactivity |
| QVQLVESGGGLVQAGGSLRLSCAASGGTFWRNDMGWYRQAPGKERELVAAISYSGGTTYYADSVKGRFTISRDNAKNTVDLQMNSLKPEDTAVDYCATGGYSTRQSTFDYWGQGTQVTVSS | low polyreactivity |
| QVQLEDSGGGLVQAGGSLRLSCAASGATFDGYTMAWYRQAPGKERELVAAISWRGTSTYYADSVKGRFTISRDNAKNTVYLQMNSLKPDDTAVYYCAADAYSGYDYWGQGTQVNVSS | low polyreactivity |
| QVQLVESVGGLVQAGGSLRLSCAASGSIFGYYAMGWYRPAPGKERELVATITWGGGSTYADSVKGRFTISRDNAKNTVYLQMNSLKPEDTAVYYCNAGYRYTSAQVTWEYDYWGQGTQVTVSS | low polyreactivity |
| QVQLVESGGGLVQAGGSLRLSCAASGRTFRYYTMGWYRQAPGKERELVAAITVGSRTNYADSEKGRFTISRDNAKNTVYFQMNSLKAEDTAVYYCARRSYYQYRYDYWGQGTQVTVSS | high polyreactivity |
| QVQLVESGGGLVQAGGSLRLSCAASGITFYGYAMGWYRQAPGKERELVAVITPSGSSTYYADSVKGRFTISRDNAKNTVYLQMNSLIPEDTAVYYCNARPGRRSLRSRTYDYWGQGTQVTVSS | high polyreactivity |
| QVQLVESGGGLVQAGGSLRLSCAASGFNFGINAMGWYRQAPGKEREWVAAINQSGDRTYYADSVKGRFTISRDNAKNTVYLQMNSLNPEDTEVYYCASLSTYRTWYGDWGQGTQVTVSS | high polyreactivity |
| QVQLVESGGGLVQAGGSLRLSCAASGSISGYYAMGWNRQAPGKERELVASIRYTGARTYYADSVKGRFTISRDNAKNTVYLQMNSLKPEDTAVYYCAADVKRDRVWGGDYWGQGTQVTVSS | low polyreactivity |
| QVQLVESGGGLVQAGGSLRLSCAASGFIFSTYAMGWYRQAPGKERELVAAITRGGRTYYADSVKGRFTISRDNAKNTVYLQMNSLIPEDTAVYYCAVFVHGDYWGQGTQVTVSS | high polyreactivity |
| QVQLVESGGGLVQAGGSLRLSCAASGTTFGINAMGWYRQAPGKERELVASITRRGGSTYYADSVKGRFTISRDNAKNTVYLQMNSLKPEDTAVYYCNKTYRYGTPLYDYWGQGTQVTVSS | high polyreactivity |
| QVQLVESGGGLVQAGGSLRLSCAASGSTFTPYAMGWYRQAPGKERELVAAINSRGGSTYYADSVKGRFTISRDNAKNTVYLQMHSLKPEDSAVYYCAARTRRRTSAYEYWGQGTQVTVSS | high polyreactivity |
| QVQLVESGGGLVQAGGSLRLSCAASGRTFDSYTMGWYRQAPGKERELLADITFTGGSTYYADSVKGRFTISRDNAKNTVYLQMNSLKPEDTAVYYCAAESVAILGLVYPKGYGYWGQGTQVTVSS | low polyreactivity |
| QVQLVESGGGLVQAGGSLRLSCAASGRTFVYNAMGWYRQAPGKERELVAAITTSGASTYYADSVKGRFTISRDNAKNTVYLQMNSLKPEDTAVYYCNAYSRYSYGRTYGYWGQGTQVTVSS | high polyreactivity |
| QVQLVESGGGLVQAGGSLRLSCAASGSTFRIYAMGWYRQAPGKERELVASISSGGRTYYADSVKGRFTISRDNAKNTVYLQMNSLKPEDTAVYYCNARHYYIWWRSPTRTAMNYWGQGTQVTVSS | high polyreactivity |
| QDQLVESGGGLVQARGSLRLSCAASGRIIKTNAMGWYRQAPGKERELVAAISSSGGRTYYADSVKGRFTISRDNAKNTVYLQMNSLKPEDTAVYYCAAPSLVSFGYWGQGTQVTVSS | high polyreactivity |
| QVQLVESGGGLVQAGGSLRLICAASGLTFVTYAMGWYRQAPGKERELVAAITWSVGGTTYYADSVKGRFTISRDNAKNTVYLQMNSLKPEDTAVYYCAAESYSYYYDYYYWGQGTQVTVSS | high polyreactivity |
| QVQLVESGGGLVQAGGSLRLSCAASGSIFDHNAMGWYRQAPGKEREFVAAISSSGGSTYYADSVKGRFTISRDKAKNTVYLQMNSLKPEDTAVYYCAAFPDRYVEHGYWGQGTQVTVSS | low polyreactivity |
| QVQLVESGGGLVQAGGSLRLSCAASGSTFDYNTMGWYRQAPGKERELVAAINNSGGSTYYADSVKGRFTISRDNAKNTVYLQMNSLKPEDTAVYYCAAVSYRRHFGPYNYWGQGTQVTVSS | low polyreactivity |
